# Assay results from US20180312819A1 (AP BIOSCIENCES, published 2018).
# B1: VID (fragment of ACVP-1 wherein the VID has the Fc domain fused to its C-terminus) (Fc fusion)
# chain: GRPFVEMYSEIPEIIHMTEGRELVIPCRVTSPNITVTLKKFPLDTLIPDGKRIIWDSRKGFIISNATYKEIGLLTCEATVNGHLYKTNYLTHRQTNTIIDVVLSPSHGIELSVGEKLVLNCTARTELNVGIDFNWEYPSSKHQHKKLVNRDLKTQSGSEMKKFLSTLTIDGVTRSDQGLYTCAASSGLMTKKNSTFVRVHEK
# notes: not shown: human IgG1 Fc region as in ACVP-1
# Legend:
# [1] = target: T1, VEGF165 (293-VE) (UniProt P15692-4 27-191); experiment: solution binding: about 40 pM VEGF165 incubated with the protein, free VEGF read by DuoSet ELISA
# T1 construct: the UniProt canonical entry is a longer isoform; also called VEGF-A
# Method: (§1) After incubation, free VEGF was detected using the Human VEGF DuoSet ELISA Development Kit (R&D Systems Catalog No. DY293B) according to the manufacturer's instructions. The data was analyzed by sigmoidal curve fitting using Prism 4.
# [2] = target: T1, VEGF165 (293-VE); experiment: solution binding: VEGF165 incubated 45 min at 37 C with titrated VID, free VEGF measured by ELISA (Human VEGF DuoSet kit)
# Method: as §1
# T1 sequence (P15692 other isoform, or with tags, fused parts or gaps limits assumed): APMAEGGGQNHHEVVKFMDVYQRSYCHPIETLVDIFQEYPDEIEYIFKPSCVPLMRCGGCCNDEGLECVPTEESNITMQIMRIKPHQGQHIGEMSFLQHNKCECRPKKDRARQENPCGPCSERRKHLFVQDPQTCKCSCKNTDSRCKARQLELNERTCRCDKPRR
binder,measurement,setting,value
B1,EC50,[1],~0.7 nM
same,EC50,[2],0.0731 nM
